# Results: article doi:10.1101/2025.08.07.669152 (bioRxiv, 2025)
# B1: Nb 1-22 (VHH)
# VHH: HVQLVESGGGLVQPGGSLRLSCAASGRSFNSYLMGWFRQAPGKEREFVAWISGSPHDIIRYRDSVKDRFTISRDNAKNTVYLQMNSLKPVDTAVYYCAVGSLRVGSFSPDYWGQGTQVTVSS
# B2: Nb 2-45 (VHH)
# VHH: QVQLVESGGGLVQAGGSLRLSCTASGYDFSILAIAWYRQAPGKERELVAAISRVGSTDYADSVKGRFTISRDNTKNTVSLQMDSLKPEDTAVYYCNAGIPMTTVLSGLGFWGQGTQVTVSS
# B3: Nb 2-38 (VHH)
# VHH: QVQLVESGGGLVQAGGSLRLSCAAAARFSTSAMGWFRQAPGKEREFVAAISWSNTNTHYADTVKGRFTISADTAKETVDLQMNSLKPEDTAVYYCVQGGWGIRQPIIVDYWGKGTQVTVSS
# B4: Nb 2-31 (VHH)
# VHH: QVQLVESGGGLVQAGESLRLSCAASKPTFRNFAAGWFRQTPGKDREFVAVIEYDGDSAYYADSVKGRFTISRDNAKNTVYLQMNRLKPGDTAVYICAIGGNHYDPSKYYTADEYDYWGQGTQVTVSS
# Target: WT RBD of SARS-CoV-2 (S protein residues 319–539) (SARS-CoV-2, wild type (GenBank …, UniProt P0DTC2))
# Experiment: ELISA
row,Binder,binding result
1,B1,binds
2,B2,binds
3,B3,binds
4,B4,binds
